Measured values published in paper PMC3260166, “HspB2/Myotonic Dystrophy Protein Kinase Binding Protein (MKBP) as a Novel Molecular Chaperone: Structural and Functional Aspects” (PLoS ONE, 2012).

Columns and labels:
[1] = target: the molecule itself; assay: AUC; sedimentation velocity, 0.125, 1 and 3 mg/ml HspB2 in TNE buffer (50 mM Tris HCl pH 7.4, 1 mM EDTA, 100 mM NaCl), 40,000 rpm, 20°C, interference optics, SEDFIT
[2] = target: the molecule itself; assay: FRET or BRET; subunit exchange: AIAS- and LYI-labelled HspB2 mixed in equimolar ratios in 20 mM HEPES pH 7.4, 100 mM NaCl, at 37°C or 20°C; excitation 332 nm

Row | Protein | binding result [1] | binding result [2]
1 | human HspB2 / Myotonic Dystrophy Protein Kinase Binding Protein (MKBP) (natural protein, UniProt Q16082 1-182, looked up, HspB2 (MKBP), human; The reverse primer carries the stop codon (TCA), so the C-terminal His tag of pET21a is probably not translated; also called MKBP/HspB2; source: E. coli BL21 DE3, purified (20% ammonium sulfate precipitation, Phenyl Sepharose)) MSGRSVPHAHPATAEYEFANPSRLGEQRFGEGLLPEEILTPTLYHGYYVRPRAAPAGEGSRAGASELRLSEGKFQAFLDVSHFTPDEVTVRTVDNLLEVSARHPQRLDRHGFVSREFCRTYVLPADVDPWRVRAALSHDGILNLEAPRGGRHLDTEVNEVYISLLPAPPDPEEEEEAAIVEP | binds | 
2 | human HspB2 labelled at its sole cysteine (Cys118) with AIAS or LYI (natural protein, UniProt Q16082 1-182, looked up, cysteine at 118 covalently labelled with AIAS (4-acetamido-4'-((iodoacetyl)amino)stilbene-2,2'-disulfonic acid; donor copy) or with Lucifer Yellow Iodoacetamide (LYI; acceptor copy), HspB2 (MKBP), human; the same recombinant protein as m1, labelled at the sole cysteine residue (118th position); Two differently labelled copies of the same protein (AIAS donor, LYI acceptor) mixed in equimolar ratio for FRET; also called AIAS-labeled HspB2; LYI-labeled HspB2; source: E. coli BL21 DE3, purified, then labelled with AIAS or LYI and desalted (PD10)) MSGRSVPHAHPATAEYEFANPSRLGEQRFGEGLLPEEILTPTLYHGYYVRPRAAPAGEGSRAGASELRLSEGKFQAFLDVSHFTPDEVTVRTVDNLLEVSARHPQRLDRHGFVSREFCRTYVLPADVDPWRVRAALSHDGILNLEAPRGGRHLDTEVNEVYISLLPAPPDPEEEEEAAIVEP |  | binds
